Assay results published in the supplement of paper PMC10567573.
± gives the standard deviation.

Assay: protein stability index of a GFP-peptide fusion (GPS, HEK-293T) (PSI 1-6); higher = more stable
[1] = treatment: DMSO, c terminus: a fixed tail appended
[2] = treatment: MLN4924 1 uM, 8 h, c terminus: a fixed tail appended
[3] = treatment: DMSO, c terminus: native
[4] = treatment: MLN4924 1 uM, 8 h, c terminus: native
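Further: 24-mer peptide tiles fused after GFP, lentivirally expressed, FACS-sorted into six equal bins by GFP/DsRed ratio, decoded by Illumina sequencing, PSI is the read-weighted mean bin number.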

| Sequence | protein stability index [1] | protein stability index [2] | protein stability index [3] | protein stability index [4] |
| --- | --- | --- | --- | --- |
| SENVVNRMKEPSSPPPAPTSSTFG [CHCHD6] | 5.04 ± 0.2 | 5.3 ± 0.13 |  |  |
| SEQEHFLIVPFGLLYSEVTASSLV [ADD1] | 2.65 ± 0.57 | 2.92 ± 0.68 |  |  |
| SETPKSQVGTLLFRSRSRLTHLSL [CDC25B] | 2.43 ± 0.12 | 2.53 ± 0.3 |  |  |
| SEVESAVWYVKKFGRYLEHLEVKF [FBXO39] | 2.44 ± 0.22 | 2.47 ± 0.43 |  |  |
| SFMMGQGGEAAHHTRSPYSTFYPP [NEUROD6] | 2.66 ± 0.39 | 2.84 ± 0.25 |  |  |
| SFMTWLRSYIKLFQAPCQRCGKFL [MED27] | 2.6 ± 0.31 | 2.48 ± 0.18 |  |  |
| SFSTAIGRTCITDLQLTVGGAQAS [MFSD9] | 2.5 ± 0.33 | 2.34 ± 0.3 |  |  |
| SFTQGEGARPLSTRVPRAAIVFTD [MATN2] | 3.5 ± 0.38 | 3.55 ± 0.12 |  |  |
| SGADTAKCGIHSMFPLHLAALNAH [ANKRD44] | 2.07 ± 0.29 | 2.36 ± 0.11 |  |  |
| SGCLRISIQKLSNESRYMIYEFWE [NECAB1] | 2.21 ± 0.95 | 2.64 ± 0.82 |  |  |
| SGDDKNSNYFSMDSMEGKRSPYAG [TRIM29] | 4.5 ± 0.25 | 4.61 ± 0.24 |  |  |
| SGEFGSVFKCVKRLDGCIYAIKRS [WEE1] | 2.31 ± 0.58 | 2.65 ± 0.12 |  |  |
| SGLRGGILIELAMRGRIYLEPPTM [GOLPH3L] | 3.09 ± 0.41 | 2.74 ± 0.76 |  |  |
| SGNMLGRHFFTSWASCLQYDFDTQ [WDFY1] | 2.47 ± 0.53 | 2.11 ± 0.12 |  |  |
| SGSESPSDSGKDLPEPSKRGPPHG [MYCL] | 5.4 ± 0.24 | 5.32 ± 0.12 |  |  |
| SGTQYVSTRQTQSWTAVTPQQTWA [C18orf25] | 2.7 ± 0.29 | 3 ± 0.51 |  |  |
| SGVDECARQEGLTFFGTELAPVRQ [PBXIP1] | 4.13 ± 0.4 | 4.08 ± 0.35 |  |  |
| SHGYDMSTFIRRYSRYLNEKAFSY [SNAP91] | 2.17 ± 0.24 | 2.3 ± 0.52 |  |  |
| SHLLVAEPEKIYAMPDPTVPDSDI [ESRRG] | 5.04 ± 0.081 | 5.08 ± 0.13 |  |  |
| SHLQTNYSKTFQRSNVDFLETPEL [NECAB1] | 3.47 ± 0.23 | 3.62 ± 0.57 |  |  |
| SIIAVAMQRGARLPAEVAGLSQVL [POMT2] | 2.35 ± 0.59 | 2.01 ± 0.18 |  |  |
| SIQKLSNESRYMIYEFWENSSVWN [NECAB1] | 2.15 ± 0.45 | 2.01 ± 0.3 |  |  |
| SIQMNVAEVSWEPGRREGCDICAG [RPS21] | 2.7 ± 0.92 | 3.35 ± 1.3 |  |  |

| Sequence | protein stability index [1] | protein stability index [2] | protein stability index [3] | protein stability index [4] |
| --- | --- | --- | --- | --- |
| SKDNMRTRIMIGLTLVFFVQITGQ [SLC2A12] | 2.55 ± 0.6 | 3.4 ± 0.17 |  |  |
| SKGMQDFNYLHTNCFEITLELSCD [CPN1] | 2.97 ± 0.48 | 2.72 ± 0.58 |  |  |
| SLASQVHAAAVNGDKGALQRLIVG [INVS] | 3.02 ± 0.22 | 3.19 ± 0.29 |  |  |
| SLGGCSQDFLLFSPEVESLPVASS [NFE2L1] | 2.49 ± 0.52 | 2.74 ± 0.24 |  |  |
| SLIEDSQALHKRPKLDSEYYCFG [LURAP1L] |  |  | 2.57 ± 0.4 | 3.11 ± 0.45 |
| SLPLQDELAFAEDLVLDEEGARAA [ESRRA] | 3.52 ± 0.68 | 4.31 ± 0.58 |  |  |
| SLRFNGRVLFIKDVIGDEICCWSF [KCTD10] | 2.65 ± 0.49 | 2.42 ± 0.45 |  |  |
| SLRKAIETVYAAYLPKNTHPFLYL [MLH1] | 3.76 ± 0.68 |  |  |  |
| SLSKKYRQDAKYLNMRSTYAKLAA [SEC22B] | 2.56 ± 0.24 | 2.62 ± 0.073 |  |  |
| SNEQLKVTQEPRAKKGRRNQSVEP [ZMYND11] | 5.2 ± 0.32 | 5.12 ± 0.44 |  |  |
| SNYFSMDSMEGKRSPYAGLQLGAA [TRIM29] | 2.88 ± 0.3 | 2.99 ± 0.22 |  |  |
| SPAEDFVLVAETTMARIRRVYVSG [APMAP] | 2.22 ± 0.29 | 2.05 ± 0.42 |  |  |
| SPEPPSLYGALNPQYEFKEAAGSF [IRX6] | 3.47 ± 0.24 | 3.6 ± 0.22 |  |  |
| SPEVLTPQLSPGSGTPQAGTPSPS [RTN2] | 5.39 ± 0.31 | 5.45 ± 0.2 |  |  |
| SPGLSYASHTVGFTPPTSLTRAGM [CCDC6] | 3.01 ± 0.12 | 3.37 ± 0.31 |  |  |
| SPRLTFQCLEDLVNHYSEVADGLC [SLA] | 2.79 ± 0.45 | 3.19 ± 0.54 |  |  |
| SPSEKNSSFTWSVPSSGYGAVTAS [SMTNL2] | 3.65 ± 0.18 | 3.74 ± 0.073 |  |  |
| SPTSGSPRGSHSSALERLETKLHL [LURAP1L] | 3.64 ± 0.4 | 3.94 ± 0.36 |  |  |
| SPVTTSPTAATTQNPVLSKLLMAD [LCOR] | 4.536 ± 0.031 | 4.44 ± 0.081 |  |  |
| SPVVVEKSNSYPHQLYTSSSHHSH [KMT2E] | 3.76 ± 0.1 | 3.82 ± 0.38 |  |  |
| SQDLLPPPNPYPLPQEHSQIYHCT [TBX5] | 4.02 ± 0.22 | 4.11 ± 0.22 |  |  |
| SQMSPLSLYGENSNSLSSAEPLKE [ATF6] | 5.01 ± 0.3 | 5.03 ± 0.22 |  |  |
| SQTEAHYSCQSKEILRYMKEFTLL [P2RY14] | 2.21 ± 0.15 | 2.3 ± 0.23 |  |  |

| Sequence | protein stability index [1] | protein stability index [2] | protein stability index [3] | protein stability index [4] |
| --- | --- | --- | --- | --- |
| SQTPILQALQHVQASCDEAHKMKF [INTS3] | 3.88 ± 0.14 | 3.93 ± 0.21 |  |  |
| SRQDKPLSPAGSSQEAADTPDTRH [YJU2B] | 5.56 ± 0.14 | 5.46 ± 0.13 |  |  |
| SSAAMQSSCSSTSGGGGGGGGGGG [CCDC6] | 5.2 ± 0.49 | 5.16 ± 0.19 |  |  |
| SSEEGWRLFKIDKEYLLKMATEE [SAT1] |  |  | 2.78 ± 0.62 | 2.88 ± 0.68 |
| SSFPGSLPQETNLTLKVCKPQAPQ | 4.09 ± 0.21 | 4.14 ± 0.38 |  |  |
| SSPGNNNGTSIEDGQIPEIIFYT [BTBD1] |  |  | 3.14 ± 0.46 | 3.44 ± 0.56 |
| SSSINSPDRASGPEGSLSQTMAGS [FAM104A] | 5 ± 0.16 | 5.04 ± 0.1 |  |  |
| SSVYKQQWFAMLRAEQDSEVGPQE [GMCL1] | 4.08 ± 0.37 | 4.16 ± 0.24 |  |  |
| SSWKHGSGTQYVSTRQTQSWTAVT [C18orf25] | 2.5 ± 0.11 | 2.52 ± 0.47 |  |  |
| STQEPQSPREGEELKPEDKDPRDP [GNAS] | 5.59 ± 0.34 | 5.42 ± 0.48 |  |  |
| STRVCLQPIRGVEGSDYINASFID [PTPRD] | 3.18 ± 0.29 | 3.25 ± 0.41 |  |  |
| SVGTYIIDLLTFLTGQKAVKVHGL [GFOD1] | 3.23 ± 0.42 | 3.32 ± 0.54 |  |  |
| SVLQSVWMEVLVLGVAQRSLPLQD [ESRRA] | 3.62 ± 0.79 | 3.38 ± 0.57 |  |  |
| SWFDNGSICMRMEILGCPLPDPNN [CPXM2] | 2.09 ± 0.089 | 2.3 ± 0.47 |  |  |
| SWIQLPPMQERRASFYACRLDKHL [KLHL14] | 2.32 ± 0.29 | 2.26 ± 0.34 |  |  |
| SWLTRRAIRPENRAPGAGLGQDRQ [EMD] | 3.98 ± 0.27 | 4.05 ± 0.19 |  |  |
| SYDVALHRTRLQDLRVLVSNASED [SCARA5] | 3.77 ± 0.18 | 3.93 ± 0.27 |  |  |
| TAEDAELSDFEECEETGELFEEPA [FCHSD1] | 5.58 ± 0.24 | 5.5 ± 0.28 |  |  |
| TAEDSNDIYILPSDNSGQVSPPES [BCL2L13] | 5.2 ± 0.26 | 5.21 ± 0.1 |  |  |
| TCRNPACGPQWEMSEWSECTAKCG [ADAMTSL2] | 3.28 ± 0.29 | 3.93 ± 0.53 |  |  |
| TDKLVTPGKYFSAAEYHAQRLKAV [IQUB] | 3.4 ± 0.21 | 3.19 ± 0.31 |  |  |
| TDKQPLSDAWTYCISKNEWIQFNH [KLHDC2] | 2.5 ± 0.2 | 2.67 ± 0.27 |  |  |
| TDRRSFHEVREFKQLIYRVRRTDD [RIT1] | 3.03 ± 0.085 | 3.12 ± 0.14 |  |  |

| Sequence | protein stability index [1] | protein stability index [2] | protein stability index [3] | protein stability index [4] |
| --- | --- | --- | --- | --- |
| TEGGNDDSDFRELHTAREFSEEDE [RTN2] | 5.42 ± 0.36 | 5.13 ± 0.71 |  |  |
| TELLAERFYYQALSVAPQIGMPFN [SMG5] | 2.21 ± 0.34 | 2.16 ± 0.17 |  |  |
| TEMELLEVSQHIKMRMGGRVDFEE [CABP4] | 4.11 ± 0.25 | 4.08 ± 0.099 |  |  |
| TEQAAEYVPEKVKKAEKKLEENPY [CSTF3] | 5.52 ± 0.3 | 5.37 ± 0.14 |  |  |
| TFDAITTIRGEVMFFKDRFYMRTN [MMP1] | 2.25 ± 0.41 | 2.07 ± 0.19 |  |  |
| TFKSLSHIDPDVLYPSLNVTSFDS [ALG2] | 2.77 ± 0.14 | 2.92 ± 0.19 |  |  |
| TGITLLRVKFKSQQHRQGRSHHLE [PTGFR] | 2.24 ± 0.29 | 2.44 ± 0.34 |  |  |
| TGRHYWEVDVQEAGAGWWVGAAYA [TRIM14] | 2.62 ± 0.8 | 2.58 ± 0.82 |  |  |
| TGSKEKGLTKKRTKVQKKSLLLKK [NOP53] | 4.48 ± 0.24 | 4.72 ± 0.22 |  |  |
| TGTYQRAILQNHTDFKDKIVLDVG [CARM1] | 3.34 ± 0.092 | 3.35 ± 0.27 |  |  |
| THHKLCTFILKNPPENSDSGTGKK [EIF5] | 3.95 ± 0.27 | 4.28 ± 0.18 |  |  |
| THNIAHGSLGFEPVYVSCIAQDTC [SPAG8] | 2.69 ± 0.14 | 2.64 ± 0.2 |  |  |
| TIMQAVSQIRLNREHKETCEMDWS [TEKT4] | 2.3 ± 0.27 | 2.44 ± 0.21 |  |  |
| TKAGHSLELIEPLIKFQVGLKKLN [VDR] | 2.19 ± 0.38 | 2.42 ± 0.25 |  |  |
| TKLEERSRVKCDQYWPSRGTETHG [PTPRD] | 3.97 ± 0.14 | 3.71 ± 0.54 |  |  |
| TLFKKIQALQKEKETLAVNYEKEE [CCDC6] | 3.52 ± 0.27 | 3.35 ± 0.086 |  |  |
| TLGGLNPSPSEVITPWTPSPSEKN [SMTNL2] | 5.21 ± 0.25 | 5.08 ± 0.14 |  |  |
| TLREITDQEHNVAALKQAIKDKEA [TEKT4] | 4.92 ± 0.27 | 4.88 ± 0.26 |  |  |
| TMAQHAEVLVKSNNLTDRIVVIPG [CARM1] | 3.08 ± 0.22 | 3.36 ± 0.23 |  |  |
| TMRYINGLDPEPLPLMDLCRRSIR [SPSB4] | 3.31 ± 0.36 | 3.42 ± 0.3 |  |  |
